In PMC8677511:

Target: TDP-43 recombinant (rTDP-43) (UniProt Q13148 1-414)
Experiment: pull-down

TDP-43 recombinant (rTDP-43), sequence (Q13148 whole entry): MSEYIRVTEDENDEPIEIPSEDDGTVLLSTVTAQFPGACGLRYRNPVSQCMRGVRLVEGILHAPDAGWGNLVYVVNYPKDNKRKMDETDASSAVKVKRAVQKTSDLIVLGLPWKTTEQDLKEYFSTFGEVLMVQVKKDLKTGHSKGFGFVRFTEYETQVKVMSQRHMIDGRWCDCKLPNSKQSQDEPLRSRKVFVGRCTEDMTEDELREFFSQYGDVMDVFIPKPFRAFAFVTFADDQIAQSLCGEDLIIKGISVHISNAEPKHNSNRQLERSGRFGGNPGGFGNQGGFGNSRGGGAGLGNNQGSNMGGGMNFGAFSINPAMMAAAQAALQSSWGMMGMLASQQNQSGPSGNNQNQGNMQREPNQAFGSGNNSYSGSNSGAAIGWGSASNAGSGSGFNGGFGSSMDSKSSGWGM

Row | Binder | binding result
1 | UUUUUUGUGUGUUAAUGGUGUGUG (ssRNA) [G3BP1 3' UTR probe (nt334-358)] | binds
2 | UGUGUGUGUGUGCGCGUGUGCGUGUG (ssRNA) [GRN (nt262-288) probe] | binds
3 | ACACACACACACACACACACACAC (ssRNA) [(AC)12] | no binding
